Data on 1 molecule can be found in patent publication US11707527B2, “Nanoscale drug carrier capable of passing through blood-brain barrier” (KUNSHAN XINYUNDA BIOTECH CO., LTD., priority 2017, dated 2023).

Data set [1] relates to hCMEC/D3 BBB model. Description: In vitro BBB model (Transwell) transcytosis. The class given is in vitro ADME, human. The conditions noted are these: 50 μg/mL FITC-labeled, 6 h, upper to lower chamber.
Description: The cells were cultured at 37° C. under CO2 in an incubator to confluence (2-3d). After the confluence state of hCMEC/D3 was observed by a microscope, medium (EBM-2 medium) was added to an upper chamber of the Transwell plate, resulting a more than 0.5 cm difference of liquid level between the upper and lower chamberst. If an obvious difference between the two chambers can be still observed after 4 h, it was regarded as completely confluent. The wells of Transwell without inoculated cells were used as a blank control.
Equal amount (50 μg/mL) of FITC-labeled H-ferritins and the control FITC-labeled BSA were dissolved in EBM-2 medium (Gibco Life Technologies Inc., UK). […] The total volume (V) of the lower chamber was measured after being cultured for 6 h in a cell incubator. And then, 50 μL samples were respectively taken out of the lower chamber, and H-ferritin or BSA concentration (C) was measured by measuring fluorescence intensity (wavelength 488 nm). Afterwards, transcytosis efficiency was calculated according to the following formula: transcytosis efficiency %=(Clower chamber×Vlower chamber)/(Cinitial×Vinitial)×100%.
Data set [2] relates to human BBB brain endothelial hCMEC/D3 cells. The data set is described as follows: Specific binding of FITC-labeled ferritin to human brain endothelial cells (flow cytometry). The class given is cell-based. To be noted: 50 μg/ml FITC-labeled protein, 45 min, 4° C., hCMEC/D3, vs FITC-BSA.
Description: Human BBB brain endothelial hCMEC/D3 cells were cultured to about 1×10^5 (100×20 mm, dish Corning, USA) and digested with trypsin, then the cells were washed with 0.3% (w/v) BSA/PBS (pH7.4) for three times. […] The cells were washed with 0.3% BSA/PBS for three times, finally resuspended in PBS (pH7.4). And fluorescence of the samples was tested by flow cytometry (at a wavelength of 488 nm).
The subject of data set [3] is human BBB brain endothelial cells hCMEC/D3. The data set is described as follows: Endocytosis and lysosome co-localization in human brain endothelial cells (confocal microscopy). In kind it is cell-based. To be noted: hCMEC/D3, 4 h incubation.
Description: Human BBB brain endothelial cells hCMEC/D3 slides (BD Biosciences) were placed in a 6-well plate (with well diameter of 34.8 mm, Corning, USA) for culturing above to a density of about 60%, then the experiment was conducted. 1 μM FITC-labeled H-ferritin above was added, and incubated respectively for 5 min and 6 min at 37° C. Then the cells were washed with 0.3% BSA/PBS for three times, and finally fixed with 4% paraformaldehyde. After being washed with PBS (pH7.4) for three times, cell nuclei were stained with DAPI (Roche Applied Science) 10 min at room temperature. After being washed by PBS for three times again, the slides were mounted with a mounting medium, and observed by laser confocal microscopy (Olympus FluoView FV-1000, Tokyo, Japan).
Human BBB brain endothelial cells hCMEC/D3 slides (BD Biosciences) were placed in a 6-well plate for culturing to a density of about 60%, and then the experiment was conducted. […] The cells were fixed with 4% paraformaldehyde after being washed with PBS for three times. Then 0.1% Triton X-100 was used for cell permeabilization After being washed with PBS again, the cells were blocked in 5% goat serum (ZSGB-BIO) 30 min at room temperature, and then incubated in Alexa Fluor®555-labeled antibodies and lysosome marker molecules LAMP1 (1:200, clone H4A3; Invitrogen) for 1 h at 37° C. […]

B1: chimeric human H-ferritin: human L-ferritin with outer surface sequences replaced with SEQ ID NO: 1-3 of H-ferritin; SEQ ID NO: 7 (protein)
chain: MTSQVRQNYHQDSEAAINRQINLELYASYVYLSMSYYFDRDDVALEGVSHFFRELAEEKREGYERLLKMQNQRGGRIFLQDIKKPDCDDWESGLNAMECALHLEKNVNQSLLELHKLATDKNDPHLCDFLETHFLDEEVKLIKKMGDHVTNLRKMGAPESGLAEYLFERLTLKHD
modifications: chimeric human H ferritin
Regarding B1, the “crossing the in vitro BBB model (transcytosis efficiency)” value in data set [1] is “can significantly cross the blood brain barrier”. Moreover, in data set [2], the “specific binding with human brain endothelial cells” value is “can still achieve specific binding”. Besides, the “entering / co-localization with lysosome (LAMP1) in brain endothelial cells” value in data set [3] was “did not co-localize with the lysosome”.
